Test results taken from patent publication US20230159649A1, “METHODS AND COMBINATIONS FOR DUAL TARGETING OF TNF FAMILY MEMBERS” (La Jolla Institute for Immunology, priority 2020, published 2023).
“Also recorded” adds a separate entry of the source.

Experiments:
airways of naïve mice [1] = assay: Injection of recombinant LIGHT / TL1A into the airways of naïve mice: airway remodeling; format: in vivo, mouse; details: for airway remodeling (accumulation of collagen, trichrome): 10 μg intratracheally on two consecutive days, day 3, rLIGHT in DR3−/− mice, rTL1A in LIGHT−/− mice; for remodeling in mice lacking T cells and ILCs: RAG and RAGγc−/− mice; for fibrosis and remodeling after injection of the recombinant protein alone (collagen, αSMA / smooth muscle, airway hyperresponsiveness): naïve mice, into the airways (or skin)
Description: Naïve mice were injected with PBS or 10 μg rLIGHT or rTL1A intratracheally on two consecutive days. On day 3, accumulation of collagen was analyzed in the airways with trichrome staining. (FIG. 3A) rLIGHT was injected into DR3−/− mice, or rTL1A into LIGHT−/− mice. (FIG. 3B) rLIGHT was combined with rTL1A (5 μg each), and the extent of collagen deposition scored as well as the extent of inflammation scored. (FIG. 3C) rLIGHT and rTL1A were injected into RAG−/− mice.
The inventors furthered these observations by testing whether LIGHT and TL1A could induce fibrosis and remodeling independently of other inflammatory activity, and of each other, by injecting the recombinant proteins into naïve mice. […] Moreover, the effects of LIGHT and TL1A were not reliant on the other cytokine shown by injection of the proteins into the respective knockout animals.

[2] = tested on: normal human epidermal keratinocytes; assay: Human epidermal keratinocytes stimulated with rLIGHT or rTL1A; format: cell-based; details: for NF-κB activation (p-p65/RelA): keratinocytes, 25 ng/ml rTL1A or PBS
Description: FIG. 2A-FIG. 2C illustrate LTβR, HVEM, and DR3 are co-expressed or active in lung epithelial cells and fibroblasts, and keratinocytes and dermal fibroblasts. Cultured normal human bronchial epithelial cells and lung fibroblasts, and epidermal keratinocytes and dermal fibroblasts, were stained for expression of (FIG. 2A) LTβR and HVEM, (FIG. 2B) DR3 (isotype controls, gray), or (FIG. 2C) p-p65/RelA NF-κB after culture with 25 ng/ml rTL1A or PBS. Data representative of 2-4 experiments each.
Experimental Design: 1.1. LIGHT and TL1A co-operate to promote hyperplasia and inflammatory features in human keratinocytes: Firstly, the inventors test how signaling from LIGHT and TL1A directly regulate keratinocytes in vitro. Studies are performed with titrated doses of rLIGHT or rTL1A (0.1-100 ng/ml) vs. PBS, added to normal human epidermal keratinocytes from a minimum of 4 donors (obtained from Lonza) with kinetic analyses, as described previously (7, 8). LIGHT and TL1A have maximal activity in the range 20-100 ng/ml, similar to IL-13 or IL-17. […] The inventors control for specificity with siRNA knockdown of DR3, and then determine synergistic or additive activities, cross-titrating rLIGHT together with rTL1A and measure the extent of cell division and growth. The inventors also test if co-operation is at the level of the receptors (e.g. TL1A enhances expression of the LIGHT receptors).

[3] = tested on: normal human bronchial epithelial cells (HBE); assay: Human bronchial epithelial cells (HBE) stimulated with rLIGHT or rTL1A; format: cell-based; details: for periostin and TSLP expression (IF staining): 48 hrs
From the text: HBE were stimulated with rLIGHT without (black bars) or with (gray bars) budesonide. Data are mean fold increase in mRNA over unstimulated cells after 3 days, measured by RT-PCR. Steroid sensitivity was arbitrarily set at >75% inhibition of the LIGHT-induced response, indicated to the left of the thick dotted lines.
HBE were stimulated with rLIGHT (left) or rTL1A (right) for 48 hrs and expression of periostin and TSLP examined by IF staining.

airways of naïve mice [4] = assay: Injection of recombinant LIGHT / TL1A into the airways of naïve mice: airway remodeling; format: in vivo, mouse; details: 10 μg intratracheally on two consecutive days, day 3
[5] = tested on: human airway fibroblasts (HAF); assay: Human airway fibroblasts (HAF) stimulated with rLIGHT or rTL1A with or without TGF-β; format: cell-based
From the text: FIG. 9A-FIG. 9D illustrate LIGHT and TL1A induce inflammatory and remodeling activity in human airway fibroblasts (HAF). HAF were stimulated with rLIGHT or rTL1A with or without TGF-β. (FIG. 9A) Proliferation (left, thymidine incorporation) or αSMA mRNA (right) induced by LIGHT, TGF-β or both. (FIG. 9B) mRNA for select genes induced by LIGHT. (FIG. 9C) Collagen 13 and periostin protein (IF stain; DAPI is used for […]) and mRNA induced by TL1A. (FIG. 9D) Proliferation (left, thymidine incorporation) and αSMA mRNA (right) induced by TL1A, TGF-β, or their combination. Data individual cultures or means of triplicates. mRNA either fold increase over unstimulated cells or relative to GAPDH.
The inventors compare rTL1A to rLIGHT, titrating each molecule (5-100 ng/ml, their optimal dose range, see (60, 69)). The inventors perform kinetic analyses over 3 days (e.g. 4, 24, 48, 72 hr) and compare data from 4-6 individual cell populations. The inventors initially gain data with normal HAF. […] The inventors additionally have shown that rTL1A can promote activities in HAF that might overlap with, but also be distinct from, LIGHT (FIGS. 9C and 9D).

lung fibroblasts = assay: Lung fibroblasts stimulated with rTL1A or rLIGHT; format: cell-based
skin of naïve mice = assay: Subcutaneous / intradermal injection of recombinant LIGHT into mice: skin fibrosis and inflammation; format: in vivo, mouse
From the text: Masson trichrome (collagen), alpha Smooth muscle actin (αSMA) and TSLP immunofluorescent staining of skin sections. The data is representative of 6 to 10 mice per group.
Diseases such as atopic dermatitis (AD) and psoriasis present with extensive tissue remodeling, features shared with diseases of the lungs, such as severe asthma. The inventors have shown that a genetic deficiency in the TNF superfamily molecule LIGHT (TNFSF14, CD258), and blocking LIGHT binding to its receptors, reduced remodeling in the lungs in mouse models of severe asthma and systemic sclerosis (1, 2). […] LIGHT interacts with the TNF superfamily receptors HVEM (herpesvirus entry mediator, TNFRSF14) and LTβR (lymphotoxin beta receptor, TNFRSF3), and TL1A with DR3 (TNFRSF25) (4-6). The studies disclosed herein investigate the combination use of LIGHT and TL1A to control skin tissue remodeling relevant to AD and psoriasis, directly driving deregulated activity in keratinocytes and dermal fibroblasts. In support, the inventors have reported that LIGHT-deficient mice were protected from developing skin inflammation in models of scleroderma (7) and allergen-induced AD (8). […] The inventors have observed that the absence of TL1A/DR3 interactions also markedly limits disease in the same models of AD and psoriasis, and that keratinocytes and fibroblasts co-express DR3 together with the receptors for LIGHT. The inventors determine that LIGHT and TL1A are effectors of skin pathology through driving epidermal hyperplasia and remodeling molecules such as collagen, periostin, and alpha smooth muscle actin in keratinocytes and/or fibroblasts. Through production of other factors such as TSLP, IL-33, and chemokines in these structural cells, LIGHT and TL1A maintain disease through orchestrating immune inflammatory cells in the skin.

dermal fibroblasts = assay: Dermal fibroblasts stimulated with rLIGHT; format: cell-based, human; details: preliminary studies
From the text: LIGHT and TL1A synergistic in driving proliferation and inflammatory activity in dermal fibroblasts: The inventors determine inflammatory events that are triggered by LIGHT and TL1A in normal human dermal fibroblasts, using cells from a minimum of 4 donors, with kinetic analyses. The inventors find that both LIGHT and TL1A induce fibroblast proliferation, and may have differential abilities to induce myofibroblast differentiation. […] The inventors also test a range of inflammatory factors relevant to AD or psoriasis that have receptors on fibroblasts (e.g. LIGHT, IL-13, TGF-β, FGF, TNF, IL-17) to determine if they can promote DR3.

## rTL1A: recombinant TL1A (TNFSF15) protein [reference compound]
Airways of naïve mice [1]
  airway remodeling (accumulation of collagen, trichrome): promote airway remodeling
  remodeling in mice lacking T cells and ILCs: induced remodeling
Airways of naïve mice [1]; listed as TL1A
  fibrosis and remodeling after injection of the recombinant protein alone (collagen, αSMA / smooth muscle, airway hyperresponsiveness): substantial collagen deposition and αSMA accumulation; also recorded: induced a fibroproliferative syndrome
Airways of naïve mice [1]; listed as recombinant TL1A
  fibrosis and remodeling after injection of the recombinant protein alone (collagen, αSMA / smooth muscle, airway hyperresponsiveness): rapidly promotes smooth muscle alterations, collagen deposition, and airway hyperresponsiveness
[2]
  NF-κB activation (p-p65/RelA): enhanced NF-κB activation
[2]; listed as TL1A
  NF-κB activation (p-p65/RelA): induce NF-κB activation
[3]
  periostin and TSLP expression (IF staining): promotes fibrotic activity
[3]; listed as TL1A
  periostin and TSLP expression (IF staining): upregulated
Airways of naïve mice [4]
  αSMA expression in airways: upregulated
[5]
  collagen 13 and periostin protein and mRNA: promoting collagen 13 and periostin
[5]; protein alone
  proliferation of HAF (thymidine incorporation): induced proliferation
[5]; with TGF-β
  proliferation of HAF in combination with TGF-β: augmented by TGF-β
  αSMA mRNA in combination with TGF-β: enhanced TGF-β driven αSMA
Lung fibroblasts; protein alone
  periostin and collagen in lung fibroblasts: induced periostin and collagen
  proliferation of lung fibroblasts: induced proliferation
  αSMA in lung fibroblasts: not αSMA
Lung fibroblasts; with TGF-α as printed
  proliferation and αSMA together with TGF: synergized with TGF-α

B1: rLIGHT: recombinant LIGHT (TNFSF14) protein (protein)
chain: DGPAGSWEQLIQERRSHEVNPAAHLTGANSSLTGSGGPLLWETQLGLAFLRGLSYHDGALVVTKAGYYYIYSKVQLGGVGCPLGLASTITHGLYKRTPRYPEELELLVSQQSPCGRATSSSRVWWDSSFLGGVVHLEAGEKVVVRVLDERLVRLRDGTRSYFGAFMV
Airways of naïve mice [1]
  airway remodeling (accumulation of collagen, trichrome): promote airway remodeling
  remodeling in mice lacking T cells and ILCs: induced remodeling
  fibrosis and remodeling after injection of the recombinant protein alone (collagen, αSMA / smooth muscle, airway hyperresponsiveness): reproduce this fibrotic activity
Airways of naïve mice [1]; listed as LIGHT
  fibrosis and remodeling after injection of the recombinant protein alone (collagen, αSMA / smooth muscle, airway hyperresponsiveness): rapidly promotes smooth muscle alterations, collagen deposition, and airway hyperresponsiveness; also recorded: substantial collagen deposition and αSMA accumulation; also recorded: increases the accumulation of collagen and alpha-SMA; also recorded: induced a fibroproliferative syndrome
[2]
  induction of TSLP and periostin from keratinocytes: induce molecules from keratinocytes
[2]; via both HVEM and LTβR
  proliferation/hyperplasia of human keratinocytes: induce proliferation/hyperplasia
[3]
  periostin and TSLP expression (IF staining): upregulated
[3]; 3 days, without or with budesonide
  expression of adhesion molecules, proteinases, cytokines and chemokines (mRNA, RT-PCR), steroid sensitivity: induce expression; also recorded: promotes steroid-resistant responses
Airways of naïve mice [4]
  αSMA expression in airways: upregulated
[5]
  collagen 13 and periostin protein and mRNA: the former shared with LIGHT but not the latter
[5]; protein alone
  myofibroblast differentiation (upregulation of αSMA mRNA): cannot drive myofibroblast differentiation
  proliferation of HAF (thymidine incorporation): promote proliferation
[5]; through the LTβR, siRNA knockdown
  adhesion molecules, chemokines, cytokines and metalloproteases mRNA: induced
Skin of naïve mice; WT mice, intradermal injection, 20 μg/mouse vs PBS
  skin fibrosis and remodeling (trichrome, αSMA, TSLP staining): induces scleroderma; also recorded: induces skin fibrosis and remodeling
Skin of naïve mice; injected s.c. into mice
  cytokines and chemokines induced in vivo: induced the cytokines IL-33 and IL-25; also recorded: inducing several chemokines
Skin of naïve mice; naïve mice, subcutaneous injection
  skin disease features after subcutaneous injection: induced features of AD, scleroderma, and psoriasis
Lung fibroblasts
  chemokines (CCL5, CCL20 CXCL5 CXCL11) in lung fibroblasts: upregulated some chemokines
Dermal fibroblasts
  TSLP, periostin and αSMA expression: upregulated TSLP, periostin, and αSMA
